Target: T1, FLAG-Prrc2a-P2 (residue 761-1408) (mouse, UniProt Q7TSC1 761-1408)
T1 construct: Prrc2a p2 fragment, residue 761-1408, amplified from a mouse cDNA library; holds the region rich in glycine, arginine and glutamic acid (GRE domain); the legend of the pull-down names FLAG-Prrc2a-P2 beside P1, P3 and P4, which fits the proteins purified from HEK293T cells; also called P2 fragment; GRE domain; source: HEK293T, transfected, purified (FLAG beads, eluted with 3xFLAG peptide)
Assay: pull-down; in vitro GST pull-down with purified GST-YTHDF2 and purified FLAG-Prrc2a fragments
Details: both partners purified

T1 sequence (Q7TSC1 761-1408): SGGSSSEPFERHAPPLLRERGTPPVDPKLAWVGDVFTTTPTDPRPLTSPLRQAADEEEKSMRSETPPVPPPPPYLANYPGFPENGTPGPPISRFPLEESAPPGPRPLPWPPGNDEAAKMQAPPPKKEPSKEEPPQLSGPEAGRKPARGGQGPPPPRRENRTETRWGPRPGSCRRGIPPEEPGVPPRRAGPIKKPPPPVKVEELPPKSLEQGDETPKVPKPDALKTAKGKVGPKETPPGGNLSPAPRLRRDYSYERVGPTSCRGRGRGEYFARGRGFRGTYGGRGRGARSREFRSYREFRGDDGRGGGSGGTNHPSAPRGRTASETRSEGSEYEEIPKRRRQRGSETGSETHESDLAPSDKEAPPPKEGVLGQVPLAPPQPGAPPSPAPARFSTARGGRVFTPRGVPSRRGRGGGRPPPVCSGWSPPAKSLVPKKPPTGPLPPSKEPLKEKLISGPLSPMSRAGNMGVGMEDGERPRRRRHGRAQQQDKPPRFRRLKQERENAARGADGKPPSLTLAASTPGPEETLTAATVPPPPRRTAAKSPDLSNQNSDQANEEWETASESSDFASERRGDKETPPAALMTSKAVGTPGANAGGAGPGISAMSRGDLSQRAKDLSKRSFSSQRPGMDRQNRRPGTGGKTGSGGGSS

B1: GST-YTHDF2 (natural protein, human, UniProt Q9Y5A9 1-579, looked up)
chain: MSASSLLEQRPKGQGNKVQNGSVHQKDGLNDDDFEPYLSPQARPNNAYTAMSDSYLPSYYSPSIGFSYSLGEAAWSTGGDTAMPYLTSYGQLSNGEPHFLPDAMFGQPGALGSTPFLGQHGFNFFPSGIDFSAWGNNSSQGQSTQSSGYSSNYAYAPSSLGGAMIDGQSAFANETLNKAPGMNTIDQGMAALKLGSTEVASNVPKVVGSAVGSGSITSNIVASNSLPPATIAPPKPASWADIASKPAKQQPKLKTKNGIAGSSLPPPPIKHNMDIGTWDNKGPVAKAPSQALVQNIGQPTQGSPQPVGQQANNSPPVAQASVGQQTQPLPPPPPQPAQLSVQQQAAQPTRWVAPRNRGSGFGHNGVDGNGVGQSQAGSGSTPSEPHPVLEKLRSINNYNPKDFDWNLKHGRVFIIKSYSEDDIHRSIKYNIWCSTEHGNKRLDAAYRSMNGKGPVYLLFSVNGSGHFCGVAEMKSAVDYNTCAGVWSQDKWKGRFDVRWIFVKDVPNSQLRHIRLENNENKPVTNSRDTQEVPLEKAKQVLKIIASYKHTTSIFDDFSHYEKRQEEEESVKKERQGRGK
notes: human YTHDF2 gene subcloned into a pGEX expression vector with GST-tag; also called recombinant GST-YTHDF2; source: E. coli BL21 (DE3), purified (FPLC, Profinity GST cartridge)
  binding result: binds
